Consider one molecule from paper doi:10.1101/2021.12.02.470928, “The PNUTS-PAD domain recruits MYC to the PNUTS:PP1 phosphatase complex via the oncogenic MYC-MB0 region” (bioRxiv, 2021).

In this experiment the target is T1, PNUTS(1-148), PNUTS amino-terminal domain (PAD) (UniProt Q96QC0 1-148).
T1 construct: PNUTS (PP1 nuclear targeting subunit), residues 1-148, termed PAD; Vector pET28-MHL (RRID:Addgene_26096) with N-terminal His6 tag and TEV site; Used 13C,15N-labelled in some NMR experiments; also called apo PAD; source: E. coli BL21 (DE3), purified (Ni-NTA, gel filtration)
T1 sequence (looked up): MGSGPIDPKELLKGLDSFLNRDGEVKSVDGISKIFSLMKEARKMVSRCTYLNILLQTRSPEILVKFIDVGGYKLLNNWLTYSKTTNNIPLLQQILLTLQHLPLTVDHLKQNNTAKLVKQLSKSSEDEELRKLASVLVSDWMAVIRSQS
Kind of experiment: BLI; C-terminally biotinylated MYC constructs or N-terminally biotinylated peptides on SA biosensors, dipped into serial dilutions of PAD (WT or mutant); Octet RED384; room temperature; HBS-EP (10 mM HEPES pH 7.4, 150 mM NaCl, 3 mM EDTA, 0.005% P20) with 0.002 mg/ml BSA; Kd from steady-state response curves; apparent. To be noted: both partners purified. (In general: Biolayer interferometry detects binding as a change in optical thickness at a sensor tip.)

B1: biotinylated MYC(1-88) with C-terminal AVI tag (domain or fragment, UniProt P01106-2 16-103, looked up)
chain: MPLNVSFTNRNYDLDYDSVQPYFYCDEEENFYQQQQQSELQPPAPSEDIWKKFELLPTPPLSPSRRSGLCSPSYVAVTPFSLRGDNDG
modifications: biotin on the C-terminal AVI tag
notes: MYC, residues 1-88 (contains MB0 and MBI); Purified 'as described above'; also called wild-type MYC(1-88); recombinant biotinylated MYC N-terminal protein; source: E. coli BL21 (DE3)-BirA, biotinylated by co-expressed BirA, purified; not shown: AVI tag, C-terminal, kept
For the molecule B1, the Kd was 3.5 µM.
